Assay results reported in US20250277020A1 (Boehringer Ingelheim, published 2025).
Changes are numbered by the printed parent chain. Values joined by “and” are separate entries in the source; they are usually repeats but may differ in a detail not shown here. Equal values may be shown once.

T1: Full-length human CTGF (human, UniProt P29279 27-349)
T1 construct: Corresponds to NCBI NP_001892.1 with the signal peptide omitted; purchased from R&D Systems; also called hCTGF full length; full length CTGF
T1 sequence: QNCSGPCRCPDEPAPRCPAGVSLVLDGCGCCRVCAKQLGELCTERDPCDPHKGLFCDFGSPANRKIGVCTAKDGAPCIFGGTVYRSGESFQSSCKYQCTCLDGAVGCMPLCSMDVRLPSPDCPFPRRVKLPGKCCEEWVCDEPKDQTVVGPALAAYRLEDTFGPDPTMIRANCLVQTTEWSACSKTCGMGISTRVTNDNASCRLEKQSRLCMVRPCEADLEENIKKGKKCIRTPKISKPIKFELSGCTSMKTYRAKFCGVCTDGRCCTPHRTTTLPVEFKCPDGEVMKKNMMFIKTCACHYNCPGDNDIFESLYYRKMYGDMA

T2: Human N-terminal fragment of CTGF (CTGF-NTF) (human, UniProt P29279 27-180)
T2 construct: Recombinantly expressed; also called hCTGF NTF; CTGF N-terminal fragment
T2 chain: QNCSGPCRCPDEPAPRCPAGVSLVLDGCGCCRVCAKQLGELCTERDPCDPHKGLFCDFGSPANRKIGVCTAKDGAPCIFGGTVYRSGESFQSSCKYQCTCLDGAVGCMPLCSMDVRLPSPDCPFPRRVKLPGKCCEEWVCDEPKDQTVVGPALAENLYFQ

B1: Antibody A97 (antibody, human IgG1, kappa, L234A L235A)
light: VVMTQTPLSLSVSLGDQASISCKSSQSIVHYNGNTYLEWYLQKPGQSPQLLIYKVSSRASGVPDRFSGSGSGTDFTLKISRVEAEDLGVYYCFQGSHFPLTFGQGTKLEIKRTVAAPSVFIFPPSDEQLKSGTASVVCLLNNFYPREAKVQWKVDNALQSGNSQESVTEQDSKDSTYSLSSTLTLSKADYEKHKVYACEVTHQGLSSPVTKSFNRGEC
heavy: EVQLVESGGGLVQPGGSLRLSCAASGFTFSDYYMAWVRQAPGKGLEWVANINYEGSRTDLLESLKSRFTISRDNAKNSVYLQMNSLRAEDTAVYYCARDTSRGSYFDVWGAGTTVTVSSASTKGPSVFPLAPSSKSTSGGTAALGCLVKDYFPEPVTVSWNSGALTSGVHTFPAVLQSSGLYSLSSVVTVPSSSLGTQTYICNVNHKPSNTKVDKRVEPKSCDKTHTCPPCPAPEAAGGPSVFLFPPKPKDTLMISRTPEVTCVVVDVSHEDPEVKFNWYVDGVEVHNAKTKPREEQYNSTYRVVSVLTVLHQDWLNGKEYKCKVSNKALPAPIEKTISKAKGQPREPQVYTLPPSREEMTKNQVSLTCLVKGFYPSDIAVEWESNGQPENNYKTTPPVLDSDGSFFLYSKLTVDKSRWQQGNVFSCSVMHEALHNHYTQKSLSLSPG
notes: also called Antibody 97
B2: Antibody H2 (antibody, human IgG1, kappa, V domains shown)
VH: EVQLVESGGGLVQPGGSLRLSCAASGFSFNTYAMNWVRQAPGKGLEWVARIRTKSNNYATYYADSVKDRFTISRDDSESSLYLQMNSLKTEDTAVYYCVETGFAYWDQGTLVTVSS
VL: EIVLTQSPATLSLSPGERATLSCSASSSVSYMHWFQQKPGQSPKLWIYSTSNLASGVPARFSGSGSGTDYTLTISSLEPEDFAVYYCQQRSSYPLTFGQGTKLEIKR
notes: Comparator anti-CTGF antibody, full length
B3: Antibody F1 (antibody, V domains shown)
VH: EGQLVQSGGGLVHPGGSLRLSCAGSGFTFSSYGMHWVRQAPGKGLEWVSGIGTGGGTYSTDSVKGRFTISRDNAKNSLYLQMNSLRAEDMAVYYCARGDYYGSGSFFDCWGQGTLVTVSS
VL: DIQMTQSPSSLSASVGDRVTITCRASQGISSWLAWYQQKPEKAPKSLIYAASSLQSGVPSRFSGSGSGTDFTLTISSLQPEDFATYYCQQYNSYPPTFGQGTKLEIKR
notes: as for B2
B4: Antibody H1 (antibody, human IgG1, lambda, V domains shown)
VH: EVTLKESGPVLVKPTETLTLTCTVSGFSLSTFGVHWIRQPPGKGLEWLGVIWRRGGTDYNAAFMSRLTISKDTSKSQVVFTMTNMDPVDTATYYCARDGGFDYWGQGTTVTVSS
VL: ETVVTQEPSLTVSPGGTVTLTCRSSIGAVTTSNYANWVQQKPGQAFRGLIGGTSNRAPWTPARFSGSLLGGKAALTLSGVQPEDEAEYYCALWYSTHYVFGGGTKLTVLG
notes: as for B2
B5: A119 (antibody, human IgG1, kappa, L234A L235A)
light: DIVMTQTPLSLSVSLGDQASISCKSSQSIVHYNEKTYLEWYLQKPGQSPQLLIYKVSSRASGVPDRFSGSGSGTDFTLKISRVEAEDLGVYYCFQGSHFPLTFGQGTKLEIKRTVAAPSVFIFPPSDEQLKSGTASVVCLLNNFYPREAKVQWKVDNALQSGNSQESVTEQDSKDSTYSLSSTLTLSKADYEKHKVYACEVTHQGLSSPVTKSFNRGEC
heavy: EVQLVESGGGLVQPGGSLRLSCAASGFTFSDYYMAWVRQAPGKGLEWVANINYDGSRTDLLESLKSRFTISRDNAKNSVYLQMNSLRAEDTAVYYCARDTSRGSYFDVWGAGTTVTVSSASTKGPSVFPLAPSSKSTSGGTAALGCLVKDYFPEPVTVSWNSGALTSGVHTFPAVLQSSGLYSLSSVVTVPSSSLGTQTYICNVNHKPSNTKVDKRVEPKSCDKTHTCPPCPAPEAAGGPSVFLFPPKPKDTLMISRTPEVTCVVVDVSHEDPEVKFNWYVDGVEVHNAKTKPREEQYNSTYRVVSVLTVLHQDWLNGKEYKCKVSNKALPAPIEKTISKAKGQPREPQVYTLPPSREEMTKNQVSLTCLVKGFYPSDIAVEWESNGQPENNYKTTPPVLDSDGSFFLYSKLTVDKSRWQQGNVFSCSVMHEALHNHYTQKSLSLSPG
B6: A120 (antibody, human IgG1, kappa, L234A L235A)
light: B5 light
heavy: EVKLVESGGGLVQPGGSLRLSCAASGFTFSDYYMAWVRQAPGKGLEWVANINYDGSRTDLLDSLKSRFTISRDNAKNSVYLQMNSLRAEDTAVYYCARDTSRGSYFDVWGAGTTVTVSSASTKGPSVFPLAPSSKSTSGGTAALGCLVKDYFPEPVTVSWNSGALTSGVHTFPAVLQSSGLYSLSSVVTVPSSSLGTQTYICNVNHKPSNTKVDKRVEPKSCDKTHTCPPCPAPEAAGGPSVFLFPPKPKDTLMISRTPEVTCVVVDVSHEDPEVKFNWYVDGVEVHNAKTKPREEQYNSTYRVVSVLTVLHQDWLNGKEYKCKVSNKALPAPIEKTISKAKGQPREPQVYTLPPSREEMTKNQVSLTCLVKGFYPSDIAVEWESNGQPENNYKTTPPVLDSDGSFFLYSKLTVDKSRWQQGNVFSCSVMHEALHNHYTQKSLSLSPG
B7: A13 (antibody, human IgG1, kappa, L234A L235A)
light: B1 light with G33E, N34K
heavy: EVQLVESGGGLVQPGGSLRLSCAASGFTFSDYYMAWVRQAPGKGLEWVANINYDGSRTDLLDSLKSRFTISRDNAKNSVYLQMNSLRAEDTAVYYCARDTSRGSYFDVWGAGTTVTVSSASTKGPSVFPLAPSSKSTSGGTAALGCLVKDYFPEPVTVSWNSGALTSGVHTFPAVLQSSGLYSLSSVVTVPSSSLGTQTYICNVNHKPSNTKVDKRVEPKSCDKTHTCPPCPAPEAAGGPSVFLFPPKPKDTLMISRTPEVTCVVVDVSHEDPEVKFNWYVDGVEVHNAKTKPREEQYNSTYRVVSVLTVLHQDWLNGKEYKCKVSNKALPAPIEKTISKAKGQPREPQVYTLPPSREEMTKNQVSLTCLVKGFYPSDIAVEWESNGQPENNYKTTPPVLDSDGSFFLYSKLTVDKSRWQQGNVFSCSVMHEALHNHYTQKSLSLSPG
notes: also called antibody A13

biological target: T1, Full-length human CTGF; experiment: SPR, full length CTGF; Table 15 screen of humanized variants, SPR on full length CTGF
Method in brief: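 Humanized antibody variants were made by co-expressing each of eight heavy-chain variable-region variants with each of sixteen light-chain variable-region variants in CHO cells, giving 128 combinations. Binding affinity (Kd) of each combination for full-length human CTGF was determined by surface plasmon resonance. The text gives no instrument, chip, concentrations, temperature, buffer, replicates or fitting model for this measurement.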

| Binder | Kd [nM] |
| --- | --- |
| B1 | 0.14 |

biological target: T1, Full-length human CTGF; experiment: SPR Biacore 8K+, mAb captured on Protein A/G, full length hCTGF as analyte
Experimental: (§1) Binding affinity of anti-CTGF antibodies H1 (having the light chain of SEQ ID NO: 22 and the heavy chain of SEQ ID NO: 23), H2 (having the light chain of SEQ ID NO: 24 and the heavy chain of SEQ ID NO: 25), F1, and A97 for full length human CTGF or human CTGF N-terminal fragment are determined by surface plasmon resonance (SPR).
(§2) Surface plasmon resonance is conducted using a Biacore 8K+ (Cytiva). Protein A/G (Thermo Scientific) is amine coupled to CM5 Sensor S Chip (Cytiva). For binding to hCTGF N-terminal fragment (NTF), anti-CTGF antibody (1 μg/ml) is captured on the Protein A/G surface, followed by various concentrations of antigen (100 nM to 0.78 nM; 2-fold dilutions). For binding to hCTGF full length, anti-CTGF antibody (0.2 μg/ml) is captured followed by various concentrations of antigen (10 nM to 0.156 nM; 2-fold dilutions).

| Binder | Kd | koff [s⁻¹] | kon [M⁻¹ s⁻¹] |
| --- | --- | --- | --- |
| B2 | 0.554 nM and 0.55 nM | 0.00149 | 2.7e+06 |
| B3 | 0.247 nM and 0.25 nM | 0.00337 | 1.37e+07 |
| B1 | 0.0018 nM | 4.8e-06 | 2.7e+06 |
| B4 | 0.0983 nM and 0.098 nM | 0.000671 | 6.83e+06 |

Biological target: T2, Human N-terminal fragment of CTGF …
Experiment: SPR Biacore 8K+, mAb captured on Protein A/G, hCTGF NTF as analyte
Experimental: as §1, §2

| Binder | Kd | koff [s⁻¹] | kon [M⁻¹ s⁻¹] |
| --- | --- | --- | --- |
| B2 | 45.7 nM and 46 nM | 0.0175 | 383000 |
| B3 | 30.3 nM and 30 nM | 0.0105 | 345000 |
| B1 | 0.14 nM | 4e-05 | 290000 |
| B4 | 8.82 nM and 8.8 nM | 0.0107 | 1.22e+06 |

biological target: T1, Full-length human CTGF; experiment: SPR, full length CTGF

| Binder | Kd [nM] |
| --- | --- |
| B5 | 0.91 |
| B6 | 0.84 |
| B7 | 0.25 |
